The text below walks through data of patent US20160200782A1 (MOERAE MATRIX, published 2016).

Some targets named below: cKit(h) (human, UniProt P10721 544-976, limits assumed); CDK5/p25(h) (human, UniProt Q00535 1-292; Q15078 99-307); JNK3(h) (human, UniProt P53779 1-464, limits assumed); cKit(V654A)(h) (human, UniProt P10721 544-976, limits assumed); Src(1-530)(h) (human, UniProt P12931 1-530); MAPKAP-K3(h) (human, UniProt Q16644 1-382, limits assumed); VRK2(h) (human, UniProt Q86Y07 1-508, limits assumed).

What all share (experiment): cell-based or functional assay
The target in the next test is T1, CaMKIV(h) (human, UniProt Q16566 1-473, limits assumed).
T1 sequence (looked up): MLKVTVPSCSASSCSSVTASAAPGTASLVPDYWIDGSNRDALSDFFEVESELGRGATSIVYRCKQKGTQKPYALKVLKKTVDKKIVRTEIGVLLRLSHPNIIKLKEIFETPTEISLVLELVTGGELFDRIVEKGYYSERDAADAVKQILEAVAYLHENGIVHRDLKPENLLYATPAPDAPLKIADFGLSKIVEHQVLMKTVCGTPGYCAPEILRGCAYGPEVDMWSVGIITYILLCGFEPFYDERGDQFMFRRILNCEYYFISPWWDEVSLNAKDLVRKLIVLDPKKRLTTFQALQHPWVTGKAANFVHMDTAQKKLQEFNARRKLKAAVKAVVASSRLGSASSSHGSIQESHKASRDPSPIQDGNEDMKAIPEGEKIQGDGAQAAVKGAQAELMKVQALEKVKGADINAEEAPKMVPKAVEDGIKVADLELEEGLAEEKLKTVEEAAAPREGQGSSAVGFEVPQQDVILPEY

A further test deals with T2, Fms(h) (human, UniProt P07333 538-972, limits assumed).
T2 sequence (looked up): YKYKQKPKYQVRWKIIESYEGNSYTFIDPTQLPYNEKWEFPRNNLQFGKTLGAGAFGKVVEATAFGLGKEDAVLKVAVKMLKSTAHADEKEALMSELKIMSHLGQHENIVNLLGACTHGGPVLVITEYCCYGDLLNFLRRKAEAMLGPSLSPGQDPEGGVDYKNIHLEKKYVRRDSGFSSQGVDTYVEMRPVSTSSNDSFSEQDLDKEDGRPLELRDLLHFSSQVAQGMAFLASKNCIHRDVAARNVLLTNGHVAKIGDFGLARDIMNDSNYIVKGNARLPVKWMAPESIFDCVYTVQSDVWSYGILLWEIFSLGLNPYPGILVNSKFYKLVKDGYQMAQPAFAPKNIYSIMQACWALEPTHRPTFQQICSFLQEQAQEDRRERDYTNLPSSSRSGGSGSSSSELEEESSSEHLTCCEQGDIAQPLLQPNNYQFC

The target of the next test is T3, PrKX(h) (human, UniProt P51817 1-358).
T3 sequence (looked up): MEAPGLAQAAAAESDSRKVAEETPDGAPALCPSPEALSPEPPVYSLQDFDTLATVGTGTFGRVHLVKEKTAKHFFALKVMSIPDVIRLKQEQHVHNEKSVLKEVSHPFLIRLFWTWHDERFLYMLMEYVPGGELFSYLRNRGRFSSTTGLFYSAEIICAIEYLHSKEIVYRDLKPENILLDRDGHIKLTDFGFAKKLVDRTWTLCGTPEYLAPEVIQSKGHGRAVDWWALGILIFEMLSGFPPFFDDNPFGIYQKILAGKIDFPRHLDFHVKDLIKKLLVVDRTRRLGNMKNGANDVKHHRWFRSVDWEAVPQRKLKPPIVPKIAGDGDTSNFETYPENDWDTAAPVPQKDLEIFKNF

Another test addresses T4, Haspin(h) (human, UniProt Q8TF76 471-798, limits assumed).
T4 sequence (looked up): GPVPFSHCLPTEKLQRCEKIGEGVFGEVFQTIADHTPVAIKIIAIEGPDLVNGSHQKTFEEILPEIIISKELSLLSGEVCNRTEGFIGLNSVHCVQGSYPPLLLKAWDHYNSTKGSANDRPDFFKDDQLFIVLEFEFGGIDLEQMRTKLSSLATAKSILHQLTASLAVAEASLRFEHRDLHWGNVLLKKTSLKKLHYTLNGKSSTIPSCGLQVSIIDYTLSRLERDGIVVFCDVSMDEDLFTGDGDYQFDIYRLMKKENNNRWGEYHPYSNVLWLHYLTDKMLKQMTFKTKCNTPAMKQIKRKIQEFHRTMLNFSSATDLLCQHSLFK

Another test addresses T5, MKK6(h) (human, UniProt P52564 1-334, limits assumed).
T5 sequence (looked up): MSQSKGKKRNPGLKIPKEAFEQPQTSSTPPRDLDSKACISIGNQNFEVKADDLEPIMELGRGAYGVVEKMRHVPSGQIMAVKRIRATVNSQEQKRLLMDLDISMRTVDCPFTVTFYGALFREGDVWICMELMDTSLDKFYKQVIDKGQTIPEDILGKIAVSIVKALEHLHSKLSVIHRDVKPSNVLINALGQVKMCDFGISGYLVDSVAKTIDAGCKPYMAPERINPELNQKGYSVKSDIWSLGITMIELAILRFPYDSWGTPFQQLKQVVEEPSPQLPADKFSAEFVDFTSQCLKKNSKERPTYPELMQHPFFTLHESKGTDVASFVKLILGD
Also: test concentration or dose not given here.

Sequence of cKit(h) (P10721 544-976 limits assumed): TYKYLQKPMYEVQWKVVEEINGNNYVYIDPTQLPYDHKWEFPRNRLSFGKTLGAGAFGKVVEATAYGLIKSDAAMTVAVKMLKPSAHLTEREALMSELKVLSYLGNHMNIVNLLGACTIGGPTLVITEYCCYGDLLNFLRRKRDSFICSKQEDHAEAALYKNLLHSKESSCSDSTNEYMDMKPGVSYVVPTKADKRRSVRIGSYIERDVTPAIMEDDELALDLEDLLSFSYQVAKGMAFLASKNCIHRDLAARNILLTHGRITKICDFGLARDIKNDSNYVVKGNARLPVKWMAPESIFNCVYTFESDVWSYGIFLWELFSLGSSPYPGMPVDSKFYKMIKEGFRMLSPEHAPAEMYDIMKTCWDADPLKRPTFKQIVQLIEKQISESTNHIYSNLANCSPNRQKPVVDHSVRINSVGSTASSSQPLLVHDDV
Sequence of JNK3(h) (P53779 whole entry): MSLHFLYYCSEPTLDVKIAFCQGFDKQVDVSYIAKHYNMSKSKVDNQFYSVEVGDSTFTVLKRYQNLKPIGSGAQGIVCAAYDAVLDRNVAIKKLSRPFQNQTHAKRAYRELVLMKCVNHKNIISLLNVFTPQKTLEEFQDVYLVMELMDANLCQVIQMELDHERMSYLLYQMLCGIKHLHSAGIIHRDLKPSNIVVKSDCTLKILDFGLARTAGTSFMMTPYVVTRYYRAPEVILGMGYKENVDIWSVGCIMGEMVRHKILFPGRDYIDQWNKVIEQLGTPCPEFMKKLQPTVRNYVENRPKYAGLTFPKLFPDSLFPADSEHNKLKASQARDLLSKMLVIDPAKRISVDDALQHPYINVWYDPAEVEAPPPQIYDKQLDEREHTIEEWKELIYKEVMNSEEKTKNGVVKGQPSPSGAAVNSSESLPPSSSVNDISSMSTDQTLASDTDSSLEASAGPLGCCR
Sequence of cKit(V654A)(h) (P10721 544-976 V654A limits assumed): as the sequence (P10721 544-976 limits assumed) above, with V111A counted along it
Sequence of MAPKAP-K3(h) (Q16644 whole entry): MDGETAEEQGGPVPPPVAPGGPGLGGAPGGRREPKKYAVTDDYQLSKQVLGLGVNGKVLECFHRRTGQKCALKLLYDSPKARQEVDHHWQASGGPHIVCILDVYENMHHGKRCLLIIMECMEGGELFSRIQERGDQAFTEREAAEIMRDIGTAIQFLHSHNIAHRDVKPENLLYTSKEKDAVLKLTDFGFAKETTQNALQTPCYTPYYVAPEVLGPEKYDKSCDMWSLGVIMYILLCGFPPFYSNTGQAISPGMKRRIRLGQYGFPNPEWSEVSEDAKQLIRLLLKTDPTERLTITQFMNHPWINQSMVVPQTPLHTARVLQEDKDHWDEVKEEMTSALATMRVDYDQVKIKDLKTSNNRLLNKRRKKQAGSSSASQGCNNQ
Sequence of VRK2(h) (Q86Y07 whole entry): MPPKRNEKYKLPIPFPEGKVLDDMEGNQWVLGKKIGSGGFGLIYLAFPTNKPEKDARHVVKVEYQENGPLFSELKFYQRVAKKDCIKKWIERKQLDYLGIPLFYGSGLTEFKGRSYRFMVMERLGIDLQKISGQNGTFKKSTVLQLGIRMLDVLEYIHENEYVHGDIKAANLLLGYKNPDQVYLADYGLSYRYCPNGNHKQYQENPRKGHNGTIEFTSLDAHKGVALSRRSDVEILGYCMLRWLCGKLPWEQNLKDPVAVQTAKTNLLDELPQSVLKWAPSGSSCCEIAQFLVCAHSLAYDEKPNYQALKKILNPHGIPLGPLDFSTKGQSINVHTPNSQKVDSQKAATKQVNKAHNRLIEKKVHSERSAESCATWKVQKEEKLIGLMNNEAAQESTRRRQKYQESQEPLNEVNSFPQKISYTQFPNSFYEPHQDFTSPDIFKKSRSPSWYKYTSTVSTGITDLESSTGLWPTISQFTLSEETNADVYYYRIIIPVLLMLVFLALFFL

Regarding KAFAKLAARLYRKALARQLGVAA [MMI-0400], the “% activity” value worked out at 18% in the test with CaMKIV(h); 43% in the test with cKit(h); 92% in the test with CDK5/p25(h); 70% in the test with JNK3(h); 150% with cKit(V654A)(h); 37% with Fms(h). In addition, the “% activity” value was 19% with Src(1-530)(h); 7% with MAPKAP-K3(h); 76% with PrKX(h); 36% with Haspin(h); 185% with VRK2(h); 44% with MKK6(h).

Regarding FAKLAARLYRKALARQLGVAA [MMI-0300], the “% activity” value with CaMKIV(h) came out at 17%; in the test with cKit(h), 53%; in the test with CDK5/p25(h), 89%; with JNK3(h), 89%; in the test with cKit(V654A)(h), 134%; with Fms(h), 45%. For the same molecule, the “% activity” value with Src(1-530)(h) came to 23%; with MAPKAP-K3(h), 3%; with PrKX(h) it was 61%; with Haspin(h) it was 48%; with VRK2(h), 161%; in the test with MKK6(h), 48%.
